Data on two molecules can be found in PMC9463278, “Development and Validation of Arc Nanobodies: New Tools for Probing Arc Dynamics and Function” (Neurochemical Research, 2022).

In series [1] the target is Arc NL (Rattus norvegicus) (UniProt Q63053). Description: ITC. As to conditions: cited from earlier work.
Series [2] concerns the molecule itself. As to the kind of experiment: native gel or EMSA; different amounts of purified Arc^s113−119A in native sample buffer, native PAGE on 4-15% Tris-Glycine gels; bands detected by immunoblotting with ALFA-ArcNbs and anti-ALFA HRP-coupled sdAb. In general terms: A gel shift assay detects complexes by their altered migration in electrophoresis.

With stargazin (from UniProt Q71RJ2), in series [1], the dissociation constant (Kd) (as a rule, a measure of binding affinity in units of concentration) is 34.9 nM.

B1: mutant rat Arc (Arc^s113−119A) (natural protein, UniProt Q63053 1-396, looked up)
chain: MELDHMTTGGLHAYPAPRGGPAAKPNVILQIGKCRAEMLEHVRRTHRHLLTEVSKQVERELKGLHRSVGKLENNLDGYVPTGDSQRWKKSIKACLCRCQETIANLERWVKREAAAAAAAFYRLERWADRLESMGGKYPVGSEPARHTVSVGVGGPEPYCQEADGYDYTVSPYAITPPPAAGELPEQESVGAQQYQSWVPGEDGQPSPGVDTQIFEDPREFLSHLEEYLRQVGGSEEYWLSQIQNHMNGPAKKWWEFKQGSVKNWVEFKKEFLQYSEGTLSREAIQRELDLPQKQGEPLDQFLWRKRDLYQTLYVDAEEEEIIQYVVGTLQPKFKRFLRHPLPKTLEQLIQRGMEVQDGLEQAAEPSVTPLPTEDETEALTPALTSESVASDRTQPE
notes: Activity-regulated cytoskeleton-associated protein (Arc, Arg3.1), rat; residues of the oligomerization motif 113-MHVWREV-119 substituted to alanine; also called purified mutant Arc^s113−119A protein; activity-regulated cytoskeleton-associated protein; source: purified recombinant
B1: the binding result in series [2] is “binds”.
